Where a chain is given by its changes, count along the chain named.
Tests used:
human TROP2-his protein [1] = biological target: T1, human TROP2-his protein (human, UniProt P09758 27-274); assay: SPR Biacore T200, benchmark captured on Protein G chip, TROP2-his analyte
T1 construct: Biotin-labelled in the ELISAs, unlabelled analyte in Biacore; also called biotin-labeled human TROP2-his protein; biotin human Trop2-his
T1 sequence: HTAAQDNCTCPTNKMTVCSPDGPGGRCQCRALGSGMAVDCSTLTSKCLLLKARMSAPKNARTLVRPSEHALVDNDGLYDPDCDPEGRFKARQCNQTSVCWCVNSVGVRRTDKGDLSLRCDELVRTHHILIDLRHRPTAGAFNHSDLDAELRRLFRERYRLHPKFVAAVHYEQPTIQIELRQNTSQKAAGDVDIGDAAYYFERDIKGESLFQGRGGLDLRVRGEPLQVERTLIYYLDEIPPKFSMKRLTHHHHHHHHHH
Experimental: (§1) Un-reacted moieties on the chip (biosensor) surface were blocked with ethanolamine. […] The antigen-antibody association kinetics was followed for 2 minutes and the dissociation kinetics was followed for 10 minutes. The association and dissociation curves were fit to a 1:1 Langmuir binding model using BIAcore evaluation software.

[2] = biological target: T2, cynomolgus TROP2-his protein (cynomolgus monkey, UniProt P09758 27-272 (human entry), limits assumed); assay: as above
T2 construct: no cleavage site is stated; also called Cynomolgus monkey TROP2-his protein; monkey TROP2
T2 chain: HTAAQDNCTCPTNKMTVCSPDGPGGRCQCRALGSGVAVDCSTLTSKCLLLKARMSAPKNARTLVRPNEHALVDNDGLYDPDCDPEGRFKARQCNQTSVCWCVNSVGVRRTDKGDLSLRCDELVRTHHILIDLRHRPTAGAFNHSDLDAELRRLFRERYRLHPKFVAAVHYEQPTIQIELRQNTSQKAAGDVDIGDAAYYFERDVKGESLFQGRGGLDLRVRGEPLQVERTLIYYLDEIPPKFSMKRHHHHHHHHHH
Experimental: as §1

human TROP2-his protein [3] = biological target: T1, human TROP2-his protein; assay: competitive ELISA: BM1 coated, antibody premixed with biotin human TROP2-his; blocked: binding of TROP2-his to coated BM1 (self-competition), OD falls from about 1.9 to about 0.05
human TROP2-his protein [4] = biological target: T1, human TROP2-his protein; assay: competitive ELISA: mouse A1E11A12D1 coated at 2 ug/mL, antibody premixed with biotin human TROP2-his; blocked: binding of TROP2-his to coated A1E11A12D1
Experimental: (§2) The mouse anti-TROP2 antibodies were tested for epitope binding in a competitive ELISA assay. […] ELISA plates were washed once with wash buffer (PBS+0.05% v/v Tween-20, PBST) and then blocked with 200 μl blocking buffer (5% w/v non-fatty milk in PBST) for 2 hours at 37° C. While blocking, the anti-TROP2 antibodies or controls were diluted with biotin labeled human TROP2-his protein (SEQ ID NO: 67, 34 ng/mL in 2.5% wA non-fatty milk in PBST), starting at 80 nM with a 5-fold serial dilution, and incubated at room temperature for 40 minutes. After plate washing for 4 times, the antibody/TROP2-his protein mixtures were added to the antibody coated plates, 100 μl per well. After incubation at 37° C. for 40 minutes, plates were washed 4 times again using wash buffer. Then the plates were added and incubated with 100 μl Peroxidase Streptavidin (1:10000 dilution in PBST buffer. Jackson Immunoresearch, Cat #016-030-084) for 40 minutes at 37° C. Plates were washed again using wash buffer. Finally, TMB was added and the reaction was stopped using 1M H₂SO₄. The absorbance of each well was read on a microplate reader using dual wavelength mode with 450 nm for TMB and 630 nm as the reference wavelength, and the OD (450-630) values were plotted against antibody concentration. Data was analyzed using Graphpad Prism software and IC₅₀ values were reported.

human TROP2-his protein [5] = biological target: T1, human TROP2-his protein; assay: SPR Biacore, human TROP2-his analyte
[6] = biological target: T3, full length human TROP2 on 293F-TROP2 cells (human, UniProt P09758 27-323); assay: FACS on 293F-TROP2 cells, MFI
T3 construct: also called 293F-TROP2 cells (clone ID #3A8); cell surface TROP2
T3 sequence: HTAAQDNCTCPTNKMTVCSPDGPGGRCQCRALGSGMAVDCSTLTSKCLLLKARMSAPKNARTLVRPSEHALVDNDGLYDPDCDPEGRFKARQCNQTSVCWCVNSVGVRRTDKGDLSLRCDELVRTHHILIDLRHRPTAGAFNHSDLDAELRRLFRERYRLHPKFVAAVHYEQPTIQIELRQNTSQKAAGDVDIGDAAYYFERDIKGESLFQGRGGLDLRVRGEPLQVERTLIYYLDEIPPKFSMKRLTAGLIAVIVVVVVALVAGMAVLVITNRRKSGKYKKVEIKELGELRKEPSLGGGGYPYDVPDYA

human TROP2-his protein [7] = biological target: T1, human TROP2-his protein; assay: SPR Biacore T200, supernatant antibody captured on anti-human IgG CM5 chip, 40 nM human TROP2-his
Experimental: The goat anti-human IgG (GE healthcare, Cat #BR100839, Human Antibody Capture Kit) was covalently linked to a CM5 chip instead of goat anti-mouse IgG. […] The human TROP2-his protein at the concentration of 40 nM was used instead of serially diluted human TROP2-his protein.

human TROP2-his protein [8] = biological target: T1, human TROP2-his protein; assay: competitive ELISA: mouse A1E4F7D4 coated at 2 ug/mL, antibody premixed with biotin human TROP2-his; blocked: binding of TROP2-his to coated A1E4F7D4
Experimental: as §2

human TROP2-his protein [9] = biological target: T1, human TROP2-his protein; assay: competitive ELISA: mouse A1E4F7D4 coated at 2 ug/mL, antibody premixed with biotin human TROP2-his; blocked: binding of TROP2-his to coated A1E4F7D4; no lower plateau reached at 80 nM
Experimental: as §2

human TROP2-his protein [10] = biological target: T1, human TROP2-his protein; assay: competitive ELISA: mouse A1H3C5H8E12 coated at 2 ug/mL, antibody premixed with biotin human TROP2-his; blocked: binding of TROP2-his to coated A1H3C5H8E12 (self-competition); no lower plateau reached at 80 nM
Experimental: as §2

B1: benchmark (in house prepared sacituzumab) (antibody, human IgG1, kappa, V domains shown)
VH: SVQLQQSGSELKKPGASVKVSCKASGYTFTNYGMNWVKQAPGQGLKWMGWINTYTGEPTYTDDFKGRFAFSLDTSVSTAYLQISSLKADDTAVYFCARGGFGSSYWYFDVWGQGSLVTVSS
VL: DIQLTQSPSSLSASVGDRVSITCKASQDVSIAVAWYQQKPGKAPKLLIYSASYRYTGVPDRFSGSGSGTDFTLTISSLQPEDFAVYYCQQHYITPLTFGAGTKVEIKR
notes: also called BM; BM1
Human TROP2-his protein [1]
  Kd: 0.868 nM
[2]
  Kd: 0.557 nM
Human TROP2-his protein [3]
  IC50: 0.88 nM

B2: mouse antibody A1E4F7D4 (antibody, V domains shown)
VH: QVQLQQSGAELAKPGTSVKMSCEASGYSFTTHWIHWMKQRPGQGLEWIGTIFPSNAYAVYNQKFRDRAIMTADRSSTTAYIQLTGLTSEDSAVYYCARASYFDYWGQGTTLTVSS
VL: DILLTQSPATLSVSPGERVTFSCRASQNIGTSIHWFQQRTTGSPRLLIKYASESISGIPSRFSGSGSGTDFTLHINSVESEDIAHYYCQHSHSWPFTFGSGTKLEIQ
notes: Mouse monoclonal IgG purified from hybridoma supernatant; also called Mouse A1E4F7D4
Human TROP2-his protein [4]
  IC50: 0.584 nM

B3: huA1E4F7D4-V16 (antibody, human IgG1, kappa, V domains shown)
VH: QVQLVQSGAEVKKPGASVKVSCKASGYSFTTHWIHWVRQAPGQGLEWIGTIFPSNAYAVYNQKFRDRATMTADTSISTAYIELSRLRSDDTAVYYCARASYFDYWGQGTTVTVSS
VL: EIVLTQSPATLSLSPGERATLSCRASQNIGTSIHWFQQKPGGAPRLLIKYASESISGIPSRFSGSGSGTDFTLTISSLEPEDFAVYYCQHSHSWPFTFGQGTKLEIKR
notes: Positions of the X residues are given in the claims; also called humanized antibody huA1E4F7D4-V16
Human TROP2-his protein [5]
  Kd: 0.196 nM
  koff: 7.92e-05 s⁻¹
  kon: 404000 M⁻¹ s⁻¹
[6]
  EC50: 0.362 nM
Human TROP2-his protein [7]
  Kd: 0.137 nM
  koff: 0.000175 s⁻¹
  kon: 1.28e+06 M⁻¹ s⁻¹

B4: mouse antibody A1E11A12D1 (antibody, V domains shown)
VH: QVQLQQSGAELARPGASVKLSCMASGYTFTTYGISWVRQRTGQGLEWIGQIYPGSDYSYCDEDFKGKATLTADKSSSTAYMQLSSLTSEDSAVYFCARASYFDYWGQGTTLTVSS
VL: DILLTQSPAILSVSPGERVSFSCRASQTIGTAIHWYQQRANGSPRLLIKYASESISGIPSRFSGSGSGTDFALSINTVESEDFAYYYCQQSNNWPFTFGGGTKLEIR
notes: Mouse monoclonal IgG purified from hybridoma supernatant
Human TROP2-his protein [8]
  IC50: 0.102 nM

B5: mouse antibody A1H3C5H8E12 (antibody, V domains shown)
VH: QVQLQQSGAELVRPGTSVKMSCKAAGYTFTNYWIDWVKQRPGHGLEWIGNIFPGGFYTNYNEKFKGKATLTADTSSSTAYMQLSSLTSEDSAIYYCARGGVFDYWGQGTTLTVSS
VL: B4 VL with T28S, A32S, A40T, A72T, T77S, F83I, Y85D, N93S, F96Y, R107K
notes: as for B4
Human TROP2-his protein [9]
  IC50: 4.09 nM
Human TROP2-his protein [10]
  IC50: 7 nM

— US20240207432A1 (BIOSION, published 2024)
